Measurements as given in paper PMC7935746.

Legend:
[1] = target: His-tagged TriC transporter (Pseudomonas aeruginosa); assay: cryo-EM structure
[2] = target: His-tagged TriC transporter (Pseudomonas aeruginosa); assay: SEC

Substance	stoichiometry N [1]	stoichiometry N [2]
His-tagged TriC transporter (natural protein)	3	3
fused TriAB dimer (TriA and TriB on one polypeptide)	–	1
